Square brackets hold non-standard residues; d marks the D form. Peptide text beside a SMILES is read from it. * marks the point of attachment. X3 = O=C(CCCCCNCc1nc2c(sc3cc(Br)cnc32)c(=O)[nH]1)*
Assays:
Assay in all cases: Kinase profiling (radiometric filter-binding)
Format in all cases: biochemical
IRAK4 = target: T1, IRAK4 (Homo sapiens, UniProt Q9NWZ3); settings: IRAK4, 1 µM inhibitor; read-out: Residual activity, %
T1 sequence (Q9NWZ3 1-460): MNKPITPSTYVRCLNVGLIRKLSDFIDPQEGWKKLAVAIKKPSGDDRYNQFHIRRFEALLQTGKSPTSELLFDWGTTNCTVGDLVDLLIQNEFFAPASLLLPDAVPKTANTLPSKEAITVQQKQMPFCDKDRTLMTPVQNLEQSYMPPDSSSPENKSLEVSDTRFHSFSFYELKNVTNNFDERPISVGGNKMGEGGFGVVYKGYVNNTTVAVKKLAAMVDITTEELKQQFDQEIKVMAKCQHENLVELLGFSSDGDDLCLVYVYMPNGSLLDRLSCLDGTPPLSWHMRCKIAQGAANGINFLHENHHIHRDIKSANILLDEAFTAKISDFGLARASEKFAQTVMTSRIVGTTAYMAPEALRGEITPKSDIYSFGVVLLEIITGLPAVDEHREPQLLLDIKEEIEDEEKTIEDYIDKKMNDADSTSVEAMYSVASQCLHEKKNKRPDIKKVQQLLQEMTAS
Summary of the method: (§1)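 Radiometric filter-binding; human PKs; ATP ≤ KM per kinase; compound 1 µM final; readout = % residual activity vs no-inhibitor control.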

LKB1 = target: T2, LKB1 (Homo sapiens, UniProt Q15831); settings: LKB1, 1 µM inhibitor; read-out: Residual activity, %
T2 sequence (Q15831 1-433): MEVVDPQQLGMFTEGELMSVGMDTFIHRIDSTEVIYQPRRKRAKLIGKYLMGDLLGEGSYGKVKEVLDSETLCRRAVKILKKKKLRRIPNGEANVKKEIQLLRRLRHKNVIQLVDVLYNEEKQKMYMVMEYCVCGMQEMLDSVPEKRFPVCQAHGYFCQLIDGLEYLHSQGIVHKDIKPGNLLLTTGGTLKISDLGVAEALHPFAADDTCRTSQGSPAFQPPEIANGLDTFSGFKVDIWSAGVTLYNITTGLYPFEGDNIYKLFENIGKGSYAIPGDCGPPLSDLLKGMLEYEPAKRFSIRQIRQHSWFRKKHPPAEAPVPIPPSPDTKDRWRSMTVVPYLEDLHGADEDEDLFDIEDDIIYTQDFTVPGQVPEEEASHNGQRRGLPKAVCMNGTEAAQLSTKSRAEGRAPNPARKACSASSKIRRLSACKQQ
T2 sequence (Q7RTN6 1-431 partner): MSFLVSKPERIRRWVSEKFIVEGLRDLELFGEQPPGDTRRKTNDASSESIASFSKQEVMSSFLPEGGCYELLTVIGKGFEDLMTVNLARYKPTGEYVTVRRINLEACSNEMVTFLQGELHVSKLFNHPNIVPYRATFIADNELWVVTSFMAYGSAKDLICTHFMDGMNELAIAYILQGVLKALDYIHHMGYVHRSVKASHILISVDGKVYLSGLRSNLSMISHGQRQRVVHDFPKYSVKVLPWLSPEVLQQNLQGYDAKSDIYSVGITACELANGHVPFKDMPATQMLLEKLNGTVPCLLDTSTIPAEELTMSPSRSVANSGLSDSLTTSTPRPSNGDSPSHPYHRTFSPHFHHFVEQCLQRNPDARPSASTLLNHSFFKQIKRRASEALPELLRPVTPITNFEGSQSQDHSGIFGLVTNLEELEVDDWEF
T2 sequence (Q9Y376 1-341 partner): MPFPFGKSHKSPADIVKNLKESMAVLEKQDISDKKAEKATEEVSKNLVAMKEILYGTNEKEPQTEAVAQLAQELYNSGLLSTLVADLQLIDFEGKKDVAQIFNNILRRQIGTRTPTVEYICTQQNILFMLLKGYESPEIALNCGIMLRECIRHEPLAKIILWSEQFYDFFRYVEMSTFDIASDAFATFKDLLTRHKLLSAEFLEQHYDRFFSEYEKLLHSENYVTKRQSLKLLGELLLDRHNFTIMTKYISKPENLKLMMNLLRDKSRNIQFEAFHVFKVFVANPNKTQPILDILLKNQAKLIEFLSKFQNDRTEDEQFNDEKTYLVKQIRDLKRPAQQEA
Summary of the method: as §1

MARK3 = MARK3 (Homo sapiens, UniProt P27448); settings: MARK3, 1 µM inhibitor; read-out: Residual activity, %
Sequence of MARK3 (P27448 whole entry): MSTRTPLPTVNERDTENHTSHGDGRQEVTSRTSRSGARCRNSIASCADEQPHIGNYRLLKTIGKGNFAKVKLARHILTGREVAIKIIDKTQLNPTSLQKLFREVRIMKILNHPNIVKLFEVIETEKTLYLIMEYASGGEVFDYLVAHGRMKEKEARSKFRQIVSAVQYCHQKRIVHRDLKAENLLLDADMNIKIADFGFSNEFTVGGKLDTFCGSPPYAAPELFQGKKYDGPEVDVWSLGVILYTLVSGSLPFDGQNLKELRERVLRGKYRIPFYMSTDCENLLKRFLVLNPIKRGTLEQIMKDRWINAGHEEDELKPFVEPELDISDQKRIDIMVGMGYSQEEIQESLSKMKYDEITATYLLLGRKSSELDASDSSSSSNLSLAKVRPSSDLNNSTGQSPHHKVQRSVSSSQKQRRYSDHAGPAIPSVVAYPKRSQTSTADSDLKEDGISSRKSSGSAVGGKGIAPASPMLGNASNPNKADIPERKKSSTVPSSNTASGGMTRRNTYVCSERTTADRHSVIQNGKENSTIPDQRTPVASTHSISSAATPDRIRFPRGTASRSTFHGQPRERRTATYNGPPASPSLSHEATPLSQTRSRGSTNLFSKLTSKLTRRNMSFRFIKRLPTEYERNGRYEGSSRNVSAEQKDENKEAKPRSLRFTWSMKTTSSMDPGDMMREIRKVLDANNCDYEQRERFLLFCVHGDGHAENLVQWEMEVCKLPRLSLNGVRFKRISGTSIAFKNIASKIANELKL
Summary of the method: as §1

MEKK1 = MEKK1 (Homo sapiens, UniProt Q13233); settings: MEKK1, 1 µM inhibitor; read-out: Residual activity, %
Sequence of MEKK1 (Q13233 whole entry): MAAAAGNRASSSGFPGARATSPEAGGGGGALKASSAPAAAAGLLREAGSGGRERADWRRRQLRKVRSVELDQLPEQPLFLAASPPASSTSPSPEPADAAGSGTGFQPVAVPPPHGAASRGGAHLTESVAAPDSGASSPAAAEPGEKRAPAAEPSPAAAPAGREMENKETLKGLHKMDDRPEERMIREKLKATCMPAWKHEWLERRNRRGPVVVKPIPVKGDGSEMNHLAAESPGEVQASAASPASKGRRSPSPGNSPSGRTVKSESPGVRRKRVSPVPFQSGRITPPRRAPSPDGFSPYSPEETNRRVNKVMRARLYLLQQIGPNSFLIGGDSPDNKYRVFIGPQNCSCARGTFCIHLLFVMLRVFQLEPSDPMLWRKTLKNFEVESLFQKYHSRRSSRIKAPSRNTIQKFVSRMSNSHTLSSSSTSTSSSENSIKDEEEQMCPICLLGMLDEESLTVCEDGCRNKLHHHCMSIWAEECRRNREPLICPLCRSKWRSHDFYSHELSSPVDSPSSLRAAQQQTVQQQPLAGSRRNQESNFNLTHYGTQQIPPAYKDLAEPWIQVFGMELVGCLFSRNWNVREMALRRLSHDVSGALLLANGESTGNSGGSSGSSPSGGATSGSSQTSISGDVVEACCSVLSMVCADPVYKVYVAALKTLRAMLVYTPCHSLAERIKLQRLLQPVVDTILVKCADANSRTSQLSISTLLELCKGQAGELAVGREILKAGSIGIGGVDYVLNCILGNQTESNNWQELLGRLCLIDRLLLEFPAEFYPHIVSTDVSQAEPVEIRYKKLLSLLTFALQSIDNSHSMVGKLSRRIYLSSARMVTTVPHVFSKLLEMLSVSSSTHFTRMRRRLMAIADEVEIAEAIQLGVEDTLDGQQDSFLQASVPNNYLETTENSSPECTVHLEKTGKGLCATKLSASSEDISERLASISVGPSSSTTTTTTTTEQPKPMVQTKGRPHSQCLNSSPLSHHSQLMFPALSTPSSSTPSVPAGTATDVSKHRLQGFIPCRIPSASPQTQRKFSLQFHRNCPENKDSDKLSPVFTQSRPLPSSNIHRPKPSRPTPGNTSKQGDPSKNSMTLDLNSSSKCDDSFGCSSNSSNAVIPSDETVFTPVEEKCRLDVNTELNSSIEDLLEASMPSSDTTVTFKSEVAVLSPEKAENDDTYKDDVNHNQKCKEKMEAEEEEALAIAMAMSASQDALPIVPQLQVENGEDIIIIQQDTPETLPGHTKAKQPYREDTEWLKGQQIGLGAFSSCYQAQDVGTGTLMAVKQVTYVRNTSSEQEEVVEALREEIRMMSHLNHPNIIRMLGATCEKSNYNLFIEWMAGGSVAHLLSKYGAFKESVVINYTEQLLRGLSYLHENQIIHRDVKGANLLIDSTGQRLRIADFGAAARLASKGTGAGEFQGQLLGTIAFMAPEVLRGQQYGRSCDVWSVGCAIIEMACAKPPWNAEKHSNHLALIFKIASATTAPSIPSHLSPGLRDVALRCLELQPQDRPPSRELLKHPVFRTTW
Summary of the method: as §1

TTK = target: T3, TTK (Homo sapiens, UniProt P33981); settings: 1 µM inhibitor, read-out: Residual activity, %
T3 sequence (P33981 1-857): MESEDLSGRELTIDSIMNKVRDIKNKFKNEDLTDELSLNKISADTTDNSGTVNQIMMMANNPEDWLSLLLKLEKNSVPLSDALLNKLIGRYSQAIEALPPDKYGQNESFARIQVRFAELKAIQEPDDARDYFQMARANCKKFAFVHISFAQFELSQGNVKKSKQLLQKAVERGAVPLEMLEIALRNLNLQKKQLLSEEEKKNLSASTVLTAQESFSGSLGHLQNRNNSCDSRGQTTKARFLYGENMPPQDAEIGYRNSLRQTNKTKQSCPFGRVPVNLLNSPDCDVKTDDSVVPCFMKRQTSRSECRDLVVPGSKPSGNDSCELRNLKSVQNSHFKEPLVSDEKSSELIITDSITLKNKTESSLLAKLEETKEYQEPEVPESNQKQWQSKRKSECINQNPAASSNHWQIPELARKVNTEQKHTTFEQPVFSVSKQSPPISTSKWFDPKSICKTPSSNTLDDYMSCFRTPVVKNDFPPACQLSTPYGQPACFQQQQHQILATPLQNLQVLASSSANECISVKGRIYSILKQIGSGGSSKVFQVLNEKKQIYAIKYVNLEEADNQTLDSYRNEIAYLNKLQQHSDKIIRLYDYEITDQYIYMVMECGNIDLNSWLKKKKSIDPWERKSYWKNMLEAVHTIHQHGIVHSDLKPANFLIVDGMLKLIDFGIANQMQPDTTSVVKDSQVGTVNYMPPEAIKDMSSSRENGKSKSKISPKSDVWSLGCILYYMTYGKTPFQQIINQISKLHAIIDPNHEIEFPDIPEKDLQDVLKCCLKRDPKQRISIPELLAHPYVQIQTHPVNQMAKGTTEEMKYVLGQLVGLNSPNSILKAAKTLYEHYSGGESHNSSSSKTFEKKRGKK
Summary of the method: as §1

Structure (SMILES)	remaining activity at 1 µM (IRAK4)	remaining activity at 1 µM (LKB1)	remaining activity at 1 µM (MARK3)	remaining activity at 1 µM (MEKK1)	remaining activity at 1 µM (TTK)
N=C(N)NCCC[C@@H](NC(=O)CCCCCNC(=O)Cn1cnc2c(I)c(I)c(I)c(I)c21)C(=O)N[C@H](CCCNC(=N)N)C(=O)N[C@H](CCCNC(=N)N)C(=O)N[C@H](CCCNC(=N)N)C(=O)N[C@H](CCCNC(=N)N)C(=O)N[C@H](CCCNC(=N)N)C(=O)N[C@H](CCCCN)C(N)=O [ARC-3125, TIBI-CH2-C(=O)-Ahx-(D-Arg)6-D-Lys-NH2]	73 ± 2%	49 ± 28%	72 ± 1%	77 ± 1%	45 ± 1%
N=C(N)NCCC[C@@H](NC(=O)CNC(=O)[C@@H](CCCNC(=N)N)NC(=O)[C@@H](CCCNC(=N)N)NC(=O)CCCCCCCNCc1nc2c(sc3cc(Br)cnc32)c(=O)[nH]1)C(=O)N[C@H](CCCCN)C(N)=O [Compound 1, BPTP-Aoc-(D-Arg)2-Gly-D-Arg-D-Lys-NH2]	110 ± 3%	107 ± 1%	100 ± 6%	108 ± 16%	113%
N=C(N)NCCC[C@@H](NC(=O)CNC(=O)[C@@H](CCCNC(=N)N)NC(=O)[C@@H](CCCNC(=N)N)NC(=O)CCCCCCCNCc1nc2c(sc3ccc(Br)cc32)c(=O)[nH]1)C(=O)N[C@H](CCCCN)C(N)=O [Compound 2, BBTP-Aoc-(D-Arg)2-Gly-D-Arg-D-Lys-NH2]	108 ± 8%	118 ± 4%	102 ± 7%	119 ± 5%	94 ± 15%
N=C(N)NCCC[C@@H](NC(=O)CCCCCNCc1nc2c(sc3cc(Br)cnc32)c(=O)[nH]1)C(=O)N[C@H](CCCNC(=N)N)C(=O)N[C@H](CCCNC(=N)N)C(=O)N[C@H](CCCNC(=N)N)C(=O)N[C@H](CCCNC(=N)N)C(=O)N[C@H](CCCNC(=N)N)C(=O)N[C@H](CCCCN)C(N)=O [ARC-3126, BPTP-Ahx-(D-Arg)6-D-Lys-NH2] (X3-[dR][dR][dR][dR][dR][dR][dK]-NH2)	97 ± 2%	114 ± 11%	112 ± 17%	103 ± 2%	110 ± 4%
N=C(N)NCCC[C@@H](NC(=O)CNC(=O)[C@@H](CCCNC(=N)N)NC(=O)[C@@H](CCCNC(=N)N)NC(=O)Cn1cc(CNCc2nc3c(sc4ccc(Br)cc43)c(=O)[nH]2)nn1)C(=O)N[C@H](CCCCN)C(N)=O [Compound 3, BBTP-Amt-(D-Arg)2-Gly-D-Arg-D-Lys-NH2]	107 ± 7%	115 ± 13%	100 ± 8%	98 ± 2%	86 ± 9%

Reference: publication PMC8307404, “Crystal Structure-Guided Design of Bisubstrate Inhibitors and Photoluminescent Probes for Protein Kinases of the PIM Family” (Molecules, 2021)
